Laboratory results as given in patent publication EP1694709B1 (Fraunhofer-Gesellschaft zur Förderung der angewandten …, dated 2010).

How the values were obtained:
CD64 (human) [1] = biological target: CD64 (human) (UniProt P12314); assay: cell-based or functional assay
CD64 (human) [2] = biological target: CD64 (human) (UniProt P12314)
CD64 = CD64 (human, UniProt P12314 16-374); assay: cell-based or functional assay

m22(scFv)2-ETA'
IC50 of growth inhibition (XTT-based colorimetric assay) on HL-60 cells (CD64 (human) [1]): 0.0117 µg/mL | IC50 of growth inhibition (XTT-based colorimetric assay) on U937 cells (CD64 (human) [1]): 0.0135 µg/mL

moAb m22 (antibody)
% inhibition of m22(scFv)-ETA' binding (CD64 (human) [2]): 70%

B1: m22(scFv)-ETA' (scFv)
chain 1: QVQLVESGGGVVQPGRSLRLSCSSSGFIFSDNYMYWVRQAPGKGLEWVATISDGGSYTYYPDSVKGRFTISRDNSKNTLFLQMDSLRPEDTGVYFCARGYYRYEGAMDYWGQGTPVTVSS
chain 2: DIQLTQSPSSLSASVGDRVTITCKSSQSVLYSSNQKNYLAWYQQKPGKAPKLLIYWASTRESGVPSRFSGSGSGTDFTFTISSLQPEDIATYYCHQYLSSWTFGQGTKLEIK
IC50 of growth inhibition (XTT-based colorimetric assay) on HL-60 cells (CD64): 0.0116 µg/mL | IC50 of growth inhibition (XTT-based colorimetric assay) on U937 cells (CD64): 0.0129 µg/mL
